This is an account of results in article PMC5413018, “Neuropeptide S (NPS) variants modify the signaling and risk effects of NPS Receptor 1 (NPSR1) variants in asthma” (PLoS ONE, 2017).

One assay has as its target T1, NPSR1-Ile(107) (Homo sapiens, UniProt Q6W5P4, N107I).
T1 sequence (Q6W5P4 1-371 N107I): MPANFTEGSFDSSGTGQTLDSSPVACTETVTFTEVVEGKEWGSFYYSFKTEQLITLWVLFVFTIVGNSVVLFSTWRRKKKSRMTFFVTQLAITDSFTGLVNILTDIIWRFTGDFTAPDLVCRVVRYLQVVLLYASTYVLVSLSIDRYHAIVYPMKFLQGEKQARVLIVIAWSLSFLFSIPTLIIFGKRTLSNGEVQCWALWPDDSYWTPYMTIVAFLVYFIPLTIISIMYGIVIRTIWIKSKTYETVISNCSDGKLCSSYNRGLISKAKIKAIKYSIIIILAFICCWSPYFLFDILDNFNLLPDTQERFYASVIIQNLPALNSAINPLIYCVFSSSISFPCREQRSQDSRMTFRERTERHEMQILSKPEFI
Kind of assay: Real-time RT-PCR of NPSR1 downstream target genes in HEK293 cells, NPSR1-Ile(107). The assay is classed as cell-based. More on the design: expressed in transfected cells; host or cells: HEK293. The text has this: The activation of CRE results in transcriptional changes of downstream target genes. To examine whether the observed differences in the promoter activity also affected gene expression, we measured the effects of NPS variants on known NPSR1 downstream target genes. NR4A1 (nuclear receptor subfamily 4, group A, member 1), FOS (FBJ murine osteosarcoma viral oncogene homolog), and chemokine ligands CXCL2 and CCL20 were selected as they were among the most influenced genes after NPS stimulation and their expression also differed between transcriptome comparisons of HEK293 cells expressing either NPSR1-Ile(107) or NPSR1-Asn(107). In the present study, HEK293 cells transiently transfected with either NPSR1-Ile(107) or NPSR1-Asn(107) coding variants were stimulated with 100 nM of either NPS-Val(6) or NPS-Leu(6) for 1, 3, 6, and 24 h, and changes in gene expression were analyzed with RT-PCR.
Fig 2 Real time RT-PCR analysis of NPSR1 downstream target genes. […] GAPDH was used as the endogenous reference, and data are expressed as mean of triplicate samples. […] In all experiments, results were calculated with the comparative Ct method.
Human embryonic kidney cells (HEK293) were cultured in MEM+GlutaMAX-1 medium (Gibco/Invitrogen) supplemented with 10% fetal calf serum (FCS) (Biosera), 1% sodium pyruvate, 1% non-essential amino acids and 1% penicillin/streptomycin (Gibco/Invitrogen). […] The HEK293 cell line was chosen for ligand-receptor studies because it is a well-established model for addressing numerous questions in basic biology and is easy to transfect and amenable of stringent quantitative assessment. […]
The mRNA expression was measured with qRT-PCR using either SYBR Green (for NR4A1, FOS, IER3, and EGR1, the primer sequences are given in S5 Table) or TaqMAN assay (Hs00601975 for CXCL2 Hs00601975, Hs01011368 for CCL20, Hs01036497 for NPSR1 and Pre-Developed TaqMAN Assay Reagents, Part No. 4310884 for GAPDH; Applied Biosystems). […]
For orientation: Real-time PCR tracks product formation cycle by cycle.

The test system of another assay is chemotaxis. The note with it: cited from earlier work. The text has this:
(§1) In our cells assays, the magnitude of the mRNA expression of NR4A1 was clearly dependent on the combination of NPS and NPSR1 variants (Fig 2). NR4A1 is expressed in lymphocytes upon stimulation and is anti-inflammatory. NR4A1 has been recently described as a key regulator of catecholamine production by macrophages linking sympathetic stress response and inflammation ...

Assay [1] has as its system serum pro-inflammatory cytokines. As to conditions: pigs, central and peripheral administration; cited from earlier work.
Text: as §1

A further assay has as its system phagocytosis. As to conditions: cited from earlier work.
Text: as §1

Where [2] appears, read: HEK293 with NPSR1-Ile(107) or NPSR1-Asn(107), 100 nM NPS.

Consider “Neuropeptide S (SFRNGVGTGMKKTSFQRAKS; Neuropeptide S; UniProt P0C0P6 70-89, looked up) [NPS, Neuropeptide S, variant not specified at the place]”, for which, in the assay with NPSR1-Ile(107) (HEK293, 100 nM, compared with cells expressing NPSR1-Asn(107)), the “downstream signaling in cells expressing NPSR1-Ile(107) vs NPSR1-Asn(107) (in words)” value is recorded as “stronger downstream signaling”. In the assay with NPSR1-Ile(107) (setting [2]), the “time of mRNA induction of NR4A1, FOS and CXCL2” value is reported as 1 h; the “time of up-regulation of CCL20 mRNA” value worked out at 3 h. For the same substance, the “effects on chemotaxis (in words)” value in the assay with chemotaxis is “direct effects”. For the same substance, the “levels of serum pro-inflammatory cytokines (in words)” value in assay [1] was “could be activated”. Moreover, the “effects on phagocytosis (in words)” value in the assay with phagocytosis is on record as “direct effects”.
